From patent US20250051442A1 (UNIVERSITY OF TSUKUBA, published 2025) come the findings set out here.

Assay [1] addresses T1, human DNAM-1 (human, UniProt Q15762 19-336).
T1 construct: whole, on cells; also called hDNAM-1; CD226
T1 sequence (looked up): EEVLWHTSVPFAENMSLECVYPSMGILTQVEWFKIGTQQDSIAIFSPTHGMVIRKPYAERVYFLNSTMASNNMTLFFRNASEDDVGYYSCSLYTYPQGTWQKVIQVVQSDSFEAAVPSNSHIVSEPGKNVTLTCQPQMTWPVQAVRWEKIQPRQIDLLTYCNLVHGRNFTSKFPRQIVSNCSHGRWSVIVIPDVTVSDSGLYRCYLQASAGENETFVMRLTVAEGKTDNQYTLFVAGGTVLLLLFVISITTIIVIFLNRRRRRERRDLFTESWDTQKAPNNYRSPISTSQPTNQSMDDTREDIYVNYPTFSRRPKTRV
Briefly: flow cytometry on BW5147 cells stably expressing human DNAM-1 (hDNAM-1/BW). On the technique in general: Flow cytometry measures light scatter and fluorescence of single cells or particles in a stream.

The target of assay [2] is T1, human DNAM-1. Briefly: flow cytometry on hDNAM-1/BW cells, antibody purified from CHO-K1. As to the method: Binding to human DNAM-1 was examined by flow cytometry using a mouse lymphoblast BW5147 cell line (hereinafter, may be referred to as “BW”) and BW5147 stably expressing human hDNAM-1 (hereinafter, may be referred to as “hDNAM-1/BW”). Test antibodies at various concentrations were incubated with about […] hDNAM-1/BW cells at 4° C. for 1 hour in PBS (FACS buffer) containing 0.5% BSA and 0.05% NaN3. Thereafter, the cells were washed with ice-cooled FACS Buffer, and incubated at 4° C. for 30 minutes using a PE-labeled goat anti-human IgG antibody (manufactured by SouthernBiotech). After washing with FACS buffer, the stained cells were analyzed using a FACScan flow cytometer (manufactured by BD Biosciences).

B1: anti-human DNAM-1 monoclonal antibody mAKB1 (antibody, V domains shown)
VH: DVQLQESGPGLVKPSQSLSLTCSVTGYSITSGYYWNWIRQFPGNKLEWMGYISYDGSNNYNPSLKNRISITRDTSKNQFFLKLNSVTTEDTATYYCARAYYGNYVGYFDVWGAGTTVTVSS
VL: SIVMTQTPKFLLVSAGDRVTITCKASQSVSNDVAWYQQKPGQSPKLLIYYASNRYTGVPDRFTGSGYGTDFTFTISTVQAEDLAVYFCQQDYSSPLTFGAGTKLELKR
notes: also called clone mAKB1
In turn, B1 had an EC50 in the assay with human DNAM-1 [1] of 6 µg/mL.

B2: humanized anti-DNAM-1 antibody hAKB1-B (antibody, human IgG1, kappa, L234A L235A, V domains shown)
VH: QVQLQESGPGLVKPSETLSLTCTVSGYSISSGYYWNWIRQPPGKGLEWMGYISYDGSNNYNPSLKNRVTISRDTSKNQFSLKLSSVTAADTAVYYCARAYYGNYVGYFDVWGQGTTVTVSS
VL: DIQMTQSPSSLSASVGDRVTITCKASQSVSNDVAWYQQKPGKAPKLLIYYASNRYTGVPSRFSGSGYGTDFTFTISSLQPEDIATYYCQQDYSSPLTFGGGTKVEIKR
notes: Full chains without signal peptide; also called phAKB1-B (expression vector); hAKB1-VH2 + hAKB1-VL1
With B2, in the assay with human DNAM-1 [2], the EC50 is 5 µg/mL.

B3: humanized anti-DNAM-1 antibody hAKB1-A (antibody, human IgG1, kappa, L234A L235A, V domains shown)
VH: QVQLQESGPGLVKPSETLSLTCTVSGYSITSGYYWNWIRQPPGKGLEWMGYISYDGSNNYNPSLKNRVTISRDTSKNQFSLKLSSVTAADTAVYYCARAYYGNYVGYFDVWGQGTTVTVSS
VL: DIQMTQSPSSLSASVGDRVTITCKASQSVSNDVAWYQQKPGKAPKLLIYYASNRYTGVPSRFSGSGYGTDFTFTISSLQPEDIATYYCQQDYSSPLTFGGGTKVEIKR
notes: Full chains without signal peptide; also called phAKB1-A (expression vector); hAKB1-VH1 + hAKB1-VL1
Molecule B3 returned an EC50 in the assay with human DNAM-1 [2] of 5 µg/mL.

Broadly, the EC50 is the concentration at which the effect is half-maximal. Lower therefore signals an effect from little substance.
